{
  "source": "paper PMC11267003",
  "about": "“Interdomain communication in a homodimeric ABC transporter” (The Journal of Biological Chemistry, 2024)",
  "key": {"[1]": {"target": "the molecule itself", "experiment": "SEC; analytical, Superose 6 Increase 3.2/300, 20 mM Hepes, 140 mM NaCl, 100 mM imidazole, 15% glycerol, 0.1% GDN, pH 7.5, 4 °C; absorbance at 280 and 515 nm"}, "[2]": {"target": "T1, human coreTAPL R288A, C-terminal mVenus-His10 fusion (human) (UniProt Q9NP78)", "T1 sequence": "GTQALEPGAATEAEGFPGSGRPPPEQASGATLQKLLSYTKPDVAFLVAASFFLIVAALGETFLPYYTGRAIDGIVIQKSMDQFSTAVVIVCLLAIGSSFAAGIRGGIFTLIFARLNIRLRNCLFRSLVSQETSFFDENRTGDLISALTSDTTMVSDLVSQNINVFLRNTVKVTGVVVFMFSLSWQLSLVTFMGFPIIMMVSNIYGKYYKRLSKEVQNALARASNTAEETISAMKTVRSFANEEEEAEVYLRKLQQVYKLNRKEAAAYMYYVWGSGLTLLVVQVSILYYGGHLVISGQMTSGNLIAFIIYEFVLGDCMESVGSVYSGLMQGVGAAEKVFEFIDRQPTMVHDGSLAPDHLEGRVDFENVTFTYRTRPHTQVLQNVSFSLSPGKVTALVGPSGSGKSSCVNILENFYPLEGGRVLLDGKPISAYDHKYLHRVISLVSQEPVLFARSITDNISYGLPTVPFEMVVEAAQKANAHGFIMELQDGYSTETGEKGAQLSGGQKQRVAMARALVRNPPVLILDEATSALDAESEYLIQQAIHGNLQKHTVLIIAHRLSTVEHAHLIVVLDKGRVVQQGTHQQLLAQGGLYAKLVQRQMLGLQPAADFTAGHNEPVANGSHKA"}, "[3]": {"target": "T2, human coreTAPL wildtype (transporter associated with antigen processing-like, ABCB9), C-terminal mVenus-His10 fusion (human) (UniProt Q9NP78)", "T2 sequence": "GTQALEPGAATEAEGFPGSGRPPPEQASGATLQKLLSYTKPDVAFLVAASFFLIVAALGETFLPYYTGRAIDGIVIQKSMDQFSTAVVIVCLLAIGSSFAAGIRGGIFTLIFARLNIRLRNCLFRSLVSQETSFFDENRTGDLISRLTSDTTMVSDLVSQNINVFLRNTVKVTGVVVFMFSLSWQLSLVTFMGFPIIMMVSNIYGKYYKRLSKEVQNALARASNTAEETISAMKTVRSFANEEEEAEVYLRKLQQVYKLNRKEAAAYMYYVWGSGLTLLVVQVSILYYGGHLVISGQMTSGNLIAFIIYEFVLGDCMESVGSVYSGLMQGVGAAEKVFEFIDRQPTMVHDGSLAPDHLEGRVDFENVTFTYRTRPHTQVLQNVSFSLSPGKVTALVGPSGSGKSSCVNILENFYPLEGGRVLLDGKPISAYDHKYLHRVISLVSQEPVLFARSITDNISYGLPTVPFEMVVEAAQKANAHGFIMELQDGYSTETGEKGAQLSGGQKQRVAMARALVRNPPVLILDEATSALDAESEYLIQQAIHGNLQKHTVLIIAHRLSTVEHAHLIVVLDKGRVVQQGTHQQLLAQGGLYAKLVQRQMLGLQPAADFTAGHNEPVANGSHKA"}, "[4]": {"target": "T3, human coreTAPL D292A, C-terminal mVenus-His10 fusion (human) (UniProt Q9NP78)", "T3 sequence": "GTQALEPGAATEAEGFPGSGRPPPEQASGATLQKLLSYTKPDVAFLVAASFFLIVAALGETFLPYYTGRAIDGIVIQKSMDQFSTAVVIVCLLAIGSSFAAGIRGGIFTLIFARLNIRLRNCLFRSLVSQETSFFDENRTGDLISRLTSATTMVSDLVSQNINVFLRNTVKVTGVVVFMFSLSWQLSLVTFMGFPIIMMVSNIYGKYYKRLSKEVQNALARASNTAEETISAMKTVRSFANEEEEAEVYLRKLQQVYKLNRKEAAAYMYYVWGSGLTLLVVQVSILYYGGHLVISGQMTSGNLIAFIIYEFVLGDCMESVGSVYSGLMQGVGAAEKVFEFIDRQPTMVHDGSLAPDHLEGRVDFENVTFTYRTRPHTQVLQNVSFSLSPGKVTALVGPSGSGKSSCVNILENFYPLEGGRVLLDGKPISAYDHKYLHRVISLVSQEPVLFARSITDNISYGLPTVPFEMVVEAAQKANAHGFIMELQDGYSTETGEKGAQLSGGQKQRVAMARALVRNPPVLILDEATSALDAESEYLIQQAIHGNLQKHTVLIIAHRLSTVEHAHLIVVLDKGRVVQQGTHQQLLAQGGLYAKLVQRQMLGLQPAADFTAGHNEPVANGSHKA"}, "[5]": {"target": "T1, human coreTAPL R288A, C-terminal mVenus-His10 fusion (human)", "remark": "listed apart in the source"}},
  "note": "No end group written: not given here. *: point of attachment. Fluorescein(5-NHCOCH2) = O=C(C*)Nc1ccc2c(c1)C(=O)OC21c2ccc(O)cc2Oc2cc(O)ccc21",
  "data": [
    {"binder": "human coreTAPL D278A, C-terminal mVenus-His10 fusion (complex, UniProt Q9NP78 143-766, looked up, human TAPL (ABCB9), coreTAPL, amino acids 143-766; Mutant of the mVenus fusion construct; TEV site between coreTAPL and mVenus; also called D278A^mV; source: Sf21 insect cells (baculovirus), purified by Ni-NTA after solubilisation in GDN or DDM; reconstituted into liposomes for transport and hydrolysis assays; not shown: mVenus, C-terminal, kept) GTQALEPGAATEAEGFPGSGRPPPEQASGATLQKLLSYTKPDVAFLVAASFFLIVAALGETFLPYYTGRAIDGIVIQKSMDQFSTAVVIVCLLAIGSSFAAGIRGGIFTLIFARLNIRLRNCLFRSLVSQETSFFAENRTGDLISRLTSDTTMVSDLVSQNINVFLRNTVKVTGVVVFMFSLSWQLSLVTFMGFPIIMMVSNIYGKYYKRLSKEVQNALARASNTAEETISAMKTVRSFANEEEEAEVYLRKLQQVYKLNRKEAAAYMYYVWGSGLTLLVVQVSILYYGGHLVISGQMTSGNLIAFIIYEFVLGDCMESVGSVYSGLMQGVGAAEKVFEFIDRQPTMVHDGSLAPDHLEGRVDFENVTFTYRTRPHTQVLQNVSFSLSPGKVTALVGPSGSGKSSCVNILENFYPLEGGRVLLDGKPISAYDHKYLHRVISLVSQEPVLFARSITDNISYGLPTVPFEMVVEAAQKANAHGFIMELQDGYSTETGEKGAQLSGGQKQRVAMARALVRNPPVLILDEATSALDAESEYLIQQAIHGNLQKHTVLIIAHRLSTVEHAHLIVVLDKGRVVQQGTHQQLLAQGGLYAKLVQRQMLGLQPAADFTAGHNEPVANGSHKA", "values": [
      {"measurement": "binding result", "setting": "[1]", "value": "binds"}
    ]},
    {"binder": "human coreTAPL D292A, C-terminal mVenus-His10 fusion (complex, UniProt Q9NP78 143-766, looked up, human TAPL (ABCB9), coreTAPL, amino acids 143-766; Mutant of the mVenus fusion construct; TEV site between coreTAPL and mVenus; also called D292A^mV; source: Sf21 insect cells (baculovirus), purified by Ni-NTA after solubilisation in GDN or DDM; reconstituted into liposomes for transport and hydrolysis assays; not shown: mVenus, C-terminal, kept) GTQALEPGAATEAEGFPGSGRPPPEQASGATLQKLLSYTKPDVAFLVAASFFLIVAALGETFLPYYTGRAIDGIVIQKSMDQFSTAVVIVCLLAIGSSFAAGIRGGIFTLIFARLNIRLRNCLFRSLVSQETSFFDENRTGDLISRLTSATTMVSDLVSQNINVFLRNTVKVTGVVVFMFSLSWQLSLVTFMGFPIIMMVSNIYGKYYKRLSKEVQNALARASNTAEETISAMKTVRSFANEEEEAEVYLRKLQQVYKLNRKEAAAYMYYVWGSGLTLLVVQVSILYYGGHLVISGQMTSGNLIAFIIYEFVLGDCMESVGSVYSGLMQGVGAAEKVFEFIDRQPTMVHDGSLAPDHLEGRVDFENVTFTYRTRPHTQVLQNVSFSLSPGKVTALVGPSGSGKSSCVNILENFYPLEGGRVLLDGKPISAYDHKYLHRVISLVSQEPVLFARSITDNISYGLPTVPFEMVVEAAQKANAHGFIMELQDGYSTETGEKGAQLSGGQKQRVAMARALVRNPPVLILDEATSALDAESEYLIQQAIHGNLQKHTVLIIAHRLSTVEHAHLIVVLDKGRVVQQGTHQQLLAQGGLYAKLVQRQMLGLQPAADFTAGHNEPVANGSHKA", "values": [
      {"measurement": "binding result", "setting": "[1]", "value": "binds"}
    ]},
    {"binder": "human coreTAPL wildtype (transporter associated with antigen processing-like, ABCB9), C-terminal mVenus-His10 fusion (complex, UniProt Q9NP78 143-766, looked up, human TAPL (ABCB9), coreTAPL without the N-terminal TMD0, amino acids 143-766; A tobacco etch virus cleavage site lies between coreTAPL and mVenus; no cleavage is reported for the mVenus constructs, so the His10 behind mVenus was probably still there; also called wt; wt TAPL; source: Sf21 insect cells (baculovirus), purified by Ni-NTA after solubilisation in GDN or DDM; reconstituted into …) GTQALEPGAATEAEGFPGSGRPPPEQASGATLQKLLSYTKPDVAFLVAASFFLIVAALGETFLPYYTGRAIDGIVIQKSMDQFSTAVVIVCLLAIGSSFAAGIRGGIFTLIFARLNIRLRNCLFRSLVSQETSFFDENRTGDLISRLTSDTTMVSDLVSQNINVFLRNTVKVTGVVVFMFSLSWQLSLVTFMGFPIIMMVSNIYGKYYKRLSKEVQNALARASNTAEETISAMKTVRSFANEEEEAEVYLRKLQQVYKLNRKEAAAYMYYVWGSGLTLLVVQVSILYYGGHLVISGQMTSGNLIAFIIYEFVLGDCMESVGSVYSGLMQGVGAAEKVFEFIDRQPTMVHDGSLAPDHLEGRVDFENVTFTYRTRPHTQVLQNVSFSLSPGKVTALVGPSGSGKSSCVNILENFYPLEGGRVLLDGKPISAYDHKYLHRVISLVSQEPVLFARSITDNISYGLPTVPFEMVVEAAQKANAHGFIMELQDGYSTETGEKGAQLSGGQKQRVAMARALVRNPPVLILDEATSALDAESEYLIQQAIHGNLQKHTVLIIAHRLSTVEHAHLIVVLDKGRVVQQGTHQQLLAQGGLYAKLVQRQMLGLQPAADFTAGHNEPVANGSHKA", "values": [
      {"measurement": "binding result", "setting": "[1]", "value": "binds"}
    ]},
    {"binder": "human coreTAPL R288A, C-terminal mVenus-His10 fusion (complex, UniProt Q9NP78 143-766, looked up, human TAPL (ABCB9), coreTAPL, amino acids 143-766; Mutant of the mVenus fusion construct; TEV site between coreTAPL and mVenus; also called R288A^mV; source: Sf21 insect cells (baculovirus), purified by Ni-NTA after solubilisation in GDN or DDM; reconstituted into liposomes for transport and hydrolysis assays; not shown: mVenus, C-terminal, kept) GTQALEPGAATEAEGFPGSGRPPPEQASGATLQKLLSYTKPDVAFLVAASFFLIVAALGETFLPYYTGRAIDGIVIQKSMDQFSTAVVIVCLLAIGSSFAAGIRGGIFTLIFARLNIRLRNCLFRSLVSQETSFFDENRTGDLISALTSDTTMVSDLVSQNINVFLRNTVKVTGVVVFMFSLSWQLSLVTFMGFPIIMMVSNIYGKYYKRLSKEVQNALARASNTAEETISAMKTVRSFANEEEEAEVYLRKLQQVYKLNRKEAAAYMYYVWGSGLTLLVVQVSILYYGGHLVISGQMTSGNLIAFIIYEFVLGDCMESVGSVYSGLMQGVGAAEKVFEFIDRQPTMVHDGSLAPDHLEGRVDFENVTFTYRTRPHTQVLQNVSFSLSPGKVTALVGPSGSGKSSCVNILENFYPLEGGRVLLDGKPISAYDHKYLHRVISLVSQEPVLFARSITDNISYGLPTVPFEMVVEAAQKANAHGFIMELQDGYSTETGEKGAQLSGGQKQRVAMARALVRNPPVLILDEATSALDAESEYLIQQAIHGNLQKHTVLIIAHRLSTVEHAHLIVVLDKGRVVQQGTHQQLLAQGGLYAKLVQRQMLGLQPAADFTAGHNEPVANGSHKA", "values": [
      {"measurement": "binding result", "setting": "[1]", "value": "binds"}
    ]},
    {"binder": "RRYQNSTC(Fluorescein(5-NHCOCH2))L", "note": "[peptide NST^FL (RRYQNSTC^FLL)]", "values": [
      {"measurement": "K (m,peptide) of peptide transport into proteoliposomes (0 to 30 μM NST^FL, 10 min, 37 °C)", "setting": "[2]", "value": 2.2, "unit": "µM"},
      {"measurement": "K (m,peptide) of peptide transport into proteoliposomes (0 to 30 μM NST^FL, 10 min, 37 °C)", "setting": "[3]", "value": 4.1, "unit": "µM"},
      {"measurement": "K (m,peptide) of peptide transport into proteoliposomes (0 to 30 μM NST^FL, 10 min, 37 °C)", "setting": "[4]", "value": 2.5, "unit": "µM"}
    ]},
    {"binder": "RRYQKSTEL", "note": "[peptide R9L (…)]", "values": [
      {"measurement": "IC50 of the decrease of ATP hydrolysis in proteoliposomes by R9L (0–300 μM, 0.3 mM ATP, 15 min, 37 °C)", "setting": "[5]", "value": 9.5, "unit": "µM"}
    ]}
  ]
}
